{
  "source": "patent US7314724B2",
  "about": "“Therapeutic applications of laminin and laminin-derived protein fragments” (University of Washington, priority 1996, dated 2008)",
  "key": {"[1]": {"biological_target": "T1, islet amyloid polypeptide (amylin) (Homo sapiens, UniProt P10997)", "T1 construct": "The major protein in islet amyloid is a 37 amino acid peptide, termed islet amyloid polypeptide or amylin", "T1 sequence (P10997 34-70)": "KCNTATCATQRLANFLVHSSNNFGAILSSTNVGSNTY", "assay": "Thioflavin T fluorometry, islet amyloid polypeptide (amylin) fibril formation", "format": "biochemical"}, "Aβ (1-40)": {"biological_target": "T2, Aβ (1-40) (Homo sapiens, UniProt P05067)", "T2 construct": "2 μg of Aβ (1-40)(Bachem Inc., Torrance, Calif. USA; Lot #WM365); purchased Bachem Inc., Torrance, Calif; Lot #WM365", "T2 sequence (P05067 672-711 limits assumed)": "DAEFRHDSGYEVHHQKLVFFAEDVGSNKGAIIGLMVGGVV", "assay": "Thioflavin T fluorometry, Aβ (1-40) amyloid fibril formation", "format": "biochemical", "details": "for dose dependence of inhibition of Aβ fibril formation, in words: 5 nM, 15 nM, 40 nM and 100 nM laminin, 1 week (FIG. 4); for fold inhibition of Aβ (1-40) amyloid fibril formation (fluorescence lower than Aβ alone): 37° C.; for fold decrease of Aβ fibrillogenesis: comparison study (FIG. 3); for inhibition of Aβ fibril formation, in words: dose study (FIG. 4), 3 days and 7 days", "experimental": "The effects of laminin on Aβ fibrillogenesis was also determined using the previously described method of Thioflavin T fluorometry (Naiki et al, Lab. Invest. 65:104-110, 1991; Levine III, Protein Sci. 2:404-410, 1993; Levine III, Int. J. Exp. Clin. Invest. 2:1-6, 1995; Naiki and Nakakuki, Lab. Invest. 74:374-383, 1996). In this assay, Thioflavin T binds specifically to fibrillar amyloid and this binding produces a fluorescence enhancement at 480 nm that is directly proportional to the amount of amyloid fibrils formed (Naiki et al, Lab. Invest. 65:104-110, 1991; Levine III, Protein Sci. 2:404-410, 1993; Levine III, Int. J. Exp. Clin. Invest. 2:1-6, 1995; Naiki and Nakakuki, Lab. Invest. 74:374-383, 1996). In a first study, the effects of EHS laminin on Aβ (1-40) fibrillogenesis was assessed. For this study, 25 μM of freshly solubilized Aβ (1-40)(Bachem Inc., Torrance, Calif., USA; Lot #WM365) was incubated in microcentrifuge tubes at 37° C. for 1 week (in triplicate), either alone, or in the presence of 100 nM EHS laminin (Sigma Chemical Company, St. Louis, Mo., USA) in 100 mM Tris, 50 mM NaCl, pH 7.0 (TBS). 100 nM of laminin utilized for these studies represented a Aβ:laminin molar ratio of 250:1. 50 μl aliquots were then taken from each tube for analysis at 1 hr, 1 day, 3 days, and 1 week. In a second set of studies, the effects of laminin on Aβ (1 -40) fibril formation was directly compared to other basement membrane components including fibronectin, type IV collagen and perlecan. For these studies, 25 μM of freshly solubilized Aβ (1-40) was incubated in microcentrifuge tubes for 1 week (in triplicate) either alone, or in the presence of 100 nM of EHS perlecan (isolated as previously described)(Castillo et al, J. Biochem. 120:433-444, 1996), fibronectin (Sigma Chemical Company, St. Louis, Mo., USA) or type IV collagen (Sigma Chemical Company, St. Louis, Mo., USA). 50 ul aliquots were then taken for analysis at 1 hour, 1 day, 3 days and 1 week. In a third set of studies, 25 μM of freshly solubilized Aβ (1-40) was incubated in microcentrifuge tubes for 1 week (in triplicate) either alone, or in the presence of increasing concentrations of laminin (i.e. 5 nM, 15 nM, 40 nM and 100 nM). 50 μl aliquots were taken for analysis at 1 hour, 1 day, 3 days and 1 week.\nFor each determination described above, following each incubation period, Aβ peptides +/− laminin, perlecan, fibronectin or type IV collagen, were added to 1.2 ml of 100 μM Thioflavin T (Sigma Chemical Co., St. Louis, Mo.) in 50 mM phosphate buffer (pH 6.0). Fluorescence emission at 480 nm was measured on a Turner instrument-model 450 fluorometer at an excitation wavelength of 450 nm. For each determination, the fluorometer was calibrated by zeroing in the presence of the Thioflavin T reagent alone, and by seting the 50 ng/ml riboflavin (Sigma Chemical Co., St. Louis, Mo.) in the Thioflavin T reagent to 1800 fluorescence units. All fluorescence determinations were based on these references and any background fluorescence given off by laminin, perlecan, type IV collagen, or fibronectin alone in the presence of the Thioflavin T reagent was always subtracted from all pertinent readings."}},
  "note": "Entries after “also recorded” stand apart in the source; their conditions may differ.",
  "data": [
    {"substance": "laminin: Engelbreth-Holm-Swarm (EHS) mouse tumor laminin (Sigma); 850 kDa basement membrane glycoprotein of A, B1 and B2 chains", "values": [
      {"measurement": "inhibition of amylin fibrillogenesis, in words", "setting": "[1]; 40 nM, 15 nM and 5 nM laminin, 1 week (FIG. 6)", "result": "no significant inhibition"},
      {"measurement": "inhibition of amylin fibril formation, in words", "setting": "[1]; 100 nM laminin, all time points within 1 week (FIG. 6)", "result": "did not significantly inhibit; also recorded: does not significantly inhibit"},
      {"measurement": "dose dependence of inhibition of Aβ fibril formation, in words", "setting": "Aβ (1-40)", "result": "dose-dependent manner; also recorded: Significant dose-dependent inhibition"},
      {"measurement": "dose dependence of inhibition of Aβ fibril formation, in words", "setting": "Aβ (1-40); listed as Laminin", "result": "dose-dependent manner"},
      {"measurement": "fold inhibition of Aβ (1-40) amyloid fibril formation (fluorescence lower than Aβ alone)", "setting": "Aβ (1-40); 25 μM Aβ (1-40), 100 nM laminin, 1 week (FIG. 2)", "result": 27.1, "unit": "fold"},
      {"measurement": "fold inhibition of Aβ (1-40) amyloid fibril formation (fluorescence lower than Aβ alone)", "setting": "Aβ (1-40); 25 μM Aβ (1-40), 100 nM laminin, 1 hour (FIG. 2)", "result": 2.9, "unit": "fold"},
      {"measurement": "fold inhibition of Aβ (1-40) amyloid fibril formation (fluorescence lower than Aβ alone)", "setting": "Aβ (1-40); 25 μM Aβ (1-40), 100 nM laminin, 1 day (FIG. 2)", "result": 4.6, "unit": "fold"},
      {"measurement": "fold inhibition of Aβ (1-40) amyloid fibril formation (fluorescence lower than Aβ alone)", "setting": "Aβ (1-40); 25 μM Aβ (1-40), 100 nM laminin, 3 days (FIG. 2)", "result": 30.6, "unit": "fold"},
      {"measurement": "effect on Aβ (1-40) fibrillogenesis, in words", "setting": "Aβ (1-40); comparison of basement membrane components (FIG. 3), 25 μM Aβ (1-40), 100 nM, 1 hour to 1 week", "result": "potent inhibitory effect"},
      {"measurement": "fold decrease of Aβ fibrillogenesis", "setting": "Aβ (1-40); 25 μM Aβ (1-40), 100 nM, 1 week", "result": 21, "unit": "fold"},
      {"measurement": "fold decrease of Aβ fibrillogenesis", "setting": "Aβ (1-40); 25 μM Aβ (1-40), 100 nM, 1 day", "result": 9, "unit": "fold"},
      {"measurement": "fold decrease of Aβ fibrillogenesis", "setting": "Aβ (1-40); 25 μM Aβ (1-40), 100 nM, 3 days", "result": 9, "unit": "fold"},
      {"measurement": "inhibition of Aβ fibril formation, in words", "setting": "Aβ (1-40); 40 nM laminin", "result": "significantly inhibited"},
      {"measurement": "inhibition of Aβ fibril formation, in words", "setting": "Aβ (1-40); 100 nM laminin, 1 hour, 1 day", "result": "significantly inhibited"}
    ]}
  ]
}
